The target in assay [1] is factor present in the activated monkey spleen conditioned media. The assay is described as follows: cell-based or functional assay.
The target of assay [2] is factor present in the activated CD3+ selected human T-cell conditioned media. The experiment in a line: cell-based or functional assay.

B1: zalpha11CEE soluble receptor (zalpha11 extracellular domain with C-terminal Glu-Glu tag) (receptor)
chain: not shown
modifications: first Trp of the WSXWS motif C-mannosylated in ~46% of molecules (BHK)
In the case of B1, in assay [1], the “inhibition of conditioned-medium-driven BaF3/Zalpha11 cell growth; soluble receptor concentration giving complete inhibition” value was 10 µg/mL and the “titration of soluble receptor; lowest concentration completely inhibiting BaF3/Zalpha11 growth” value was 20 ng/mL. For the same molecule, in assay [2], the “inhibition of conditioned-medium-driven BaF3/Zalpha11 cell growth; soluble receptor concentration giving complete inhibition” value amounted to 10 µg/mL and the “titration of soluble receptor; lowest concentration completely inhibiting BaF3/Zalpha11 growth” value was determined as 20 ng/mL.

B2: zalpha11CFLG soluble receptor (zalpha11 extracellular domain with C-terminal FLAG tag) (receptor)
chain: not shown
modifications: first Trp of the WSXWS motif C-mannosylated in ~35% of molecules (BHK)
Regarding B2, in assay [1], the “inhibition of conditioned-medium-driven BaF3/Zalpha11 cell growth; soluble receptor concentration giving complete inhibition” value is 10 µg/mL and the “titration of soluble receptor; lowest concentration completely inhibiting BaF3/Zalpha11 growth” value turned out to be 20 ng/mL. Also, in assay [2], the “inhibition of conditioned-medium-driven BaF3/Zalpha11 cell growth; soluble receptor concentration giving complete inhibition” value turned out to be 10 µg/mL and the “titration of soluble receptor; lowest concentration completely inhibiting BaF3/Zalpha11 growth” value was 20 ng/mL.
